Experimental data reported in article PMC5699047 (Proceedings of the National Academy of Sciences of the …, 2017).

Molecular target: T1, MBP-COP1 (Arabidopsis, UniProt P43254 1-675)
T1 sequence (looked up): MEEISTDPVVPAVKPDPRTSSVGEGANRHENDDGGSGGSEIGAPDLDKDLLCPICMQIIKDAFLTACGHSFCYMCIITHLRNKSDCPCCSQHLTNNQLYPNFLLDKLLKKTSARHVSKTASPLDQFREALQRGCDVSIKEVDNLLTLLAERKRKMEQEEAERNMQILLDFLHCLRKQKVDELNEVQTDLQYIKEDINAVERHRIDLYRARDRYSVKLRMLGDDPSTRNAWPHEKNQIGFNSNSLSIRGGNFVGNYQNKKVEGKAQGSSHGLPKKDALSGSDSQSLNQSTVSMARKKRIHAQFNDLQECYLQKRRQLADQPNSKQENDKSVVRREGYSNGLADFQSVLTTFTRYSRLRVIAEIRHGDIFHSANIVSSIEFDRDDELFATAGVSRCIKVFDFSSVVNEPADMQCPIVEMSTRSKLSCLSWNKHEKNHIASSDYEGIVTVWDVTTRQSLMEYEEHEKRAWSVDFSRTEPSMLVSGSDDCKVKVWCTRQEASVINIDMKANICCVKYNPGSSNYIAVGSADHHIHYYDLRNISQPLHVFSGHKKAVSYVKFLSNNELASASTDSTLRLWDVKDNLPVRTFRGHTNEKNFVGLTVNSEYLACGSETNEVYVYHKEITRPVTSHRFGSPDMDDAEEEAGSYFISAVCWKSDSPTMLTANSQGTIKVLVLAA
Test: pull-down

binding result: binds
B1: GST-WDL3 (natural protein)
chain: not shown
